Source: the supplement of paper PMC12764529
± gives the half width of the 95% confidence interval.

Tests used:
[1] = folding stability dG unfold (combined trypsin and chymotrypsin); higher = more stable
Procedure, shortened: (§1)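 Sequencing followed digestion of designed mini-proteins with trypsin and chymotrypsin, each at 11 concentrations in threefold dilutions together with a no-protease condition. The mini-proteins were under 80 residues, had no cysteine, sat in a PA-tagged cDNA display construct, and were kept only if AlphaFold2 dimer inter-PAE was above 15. From the counts, Bayesian fitting gave K50, and unfolding free energy was derived against a sequence-predicted unfolded-state K50 and a shared folded-state K50, per protease or combined.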

[2] = folding stability dG unfold from trypsin proteolysis; higher = more stable
Procedure, shortened: as §1

[3] = folding stability dG unfold from chymotrypsin proteolysis; higher = more stable
Procedure, shortened: as §1

| Sequence | folding stability dG unfold [1] | folding stability dG unfold [2] | folding stability dG unfold [3] |
| --- | --- | --- | --- |
| SMKPGETVRVTFKTKDGSKIEIEFKNGKPVRITVYNKNGEKVKEIEVTLDELKELAEKLGIEEIVEVEKVSA [r9_1107_TrROS_Hall] | 3.26 ± 0.35 kcal/mol | 2.76 ± 0.19 kcal/mol | 3.44 ± 0.077 kcal/mol |
| SAGGSAGGSNGDKKPPVKWEWVMIEIEIPPDDIDEIAEEFPGFSVNYERDNGHYRVNIMIPVPYSAGGSAGG [r6_686_TrROS] | 1.73 ± 0.089 kcal/mol | 1.35 ± 0.021 kcal/mol | 1.94 ± 0.093 kcal/mol |
| SAGGSAGGEKVEKKEVKVELKIVIVVSEELREMSEEELEELLKELAAKLPGVKEVKIEILPLPESAGGSAGG [r6_710_TrROS_Hall] | 1.16 ± 0.13 kcal/mol | 1.04 ± 0.13 kcal/mol | 1.34 ± 0.13 kcal/mol |
| SAGGSAGGMTLVLEGMSEEELEELARKLRELAEELGLKVKITVERREDGRVRLTVEIELPEELPSAGGSAGG [r6_906_TrROS_Hall] | 4.15 ± 0.25 kcal/mol | 4.36 ± 0.26 kcal/mol | 3.69 ± 0.23 kcal/mol |
| SAGGSAGGSAGGSGSVRIKVYNPKTGEVLELEVPEELVPAAVEAAKALGFEKVEVSPGKSAGGSAGGSAGGS [r4_102_TrMRF] | 2.49 ± 0.13 kcal/mol | 1.59 ± 0.065 kcal/mol | 2.91 ± 0.077 kcal/mol |
| SAGPKTLLLNIPPGEDVELLIGDKPYRIKVDPERLIGYAFDPETGEIFLIFHDPEKPIALITVFPSPPLSAG [r5_302_TrMRF] | 2.18 ± 0.12 kcal/mol | 1.56 ± 0.042 kcal/mol | 2.46 ± 0.11 kcal/mol |
| GSAGVMFGSREDIEALAAALGPDVAPTDVTYDPSGYYYYTIPLPDGTPTSLTIPPDKYSPEEVAALARRLTS [r1_279_JUSTAS] | 0.481 ± 0.14 kcal/mol | -0.346 ± 0.56 kcal/mol | 0.703 ± 0.15 kcal/mol |
| SAGGSAGSMSPEEVAERIRQEALARDPNWTVEVTPLPGPRPVLRLEIYRVDPNSDSVTPVSTLVVGSAGGSA [r15_682_JUSTAS] | 0.77 ± 0.086 kcal/mol | 0.857 ± 0.018 kcal/mol | 0.516 ± 0.075 kcal/mol |
| SAGGSAGGSAGGGNLALPPRYRITVRIEKDGSTSTVEFDSEEELAALDDPGLTVTEVREESAGGSAGGSAGG [r7_793_JUSTAS] | 0.745 ± 0.11 kcal/mol | -0.743 ± 0.35 kcal/mol | 1.18 ± 0.036 kcal/mol |
| SAGGSAGGSKLKPFPIKLPGDLSMTIVELPEDPRFIVTVWHPDGDKPIDSIEFEPDEFEANVGSAGGSAGGS [r20_190_TrMRF] | 0.591 ± 0.078 kcal/mol | 0.285 ± 0.023 kcal/mol | 0.793 ± 0.033 kcal/mol |
| SAGGSAGGSAGGGSMTTTTLTFTVPPDVTPEEVRAALEAAGYGDVAVTREGNTWTVTVTSAGGSAGGSAGGS [r10_868_JUSTAS] | 2.4 ± 0.1 kcal/mol | 1.56 ± 0.049 kcal/mol | 2.6 ± 0.039 kcal/mol |
| SGMSMAKDAKPIYIEYRDPNGKSYRVTEVKVNEDGTLTITIEYPDSIKTYTLPPNANYPLSSSLILSTVESA [r9_993_JUSTAS] | 1.45 ± 0.14 kcal/mol | 1.4 ± 0.076 kcal/mol | 1.43 ± 0.13 kcal/mol |
| SAGGEMELTLTVTIKVENLTKEQIEEELRKLLEELGFEIEEITVEYDEENKTITVTVRIRLPPLEDLSAGGS [r16_287_TrROS_Hall] | 3.15 ± 0.25 kcal/mol | 3.15 ± 0.27 kcal/mol | 2.98 ± 0.23 kcal/mol |
| SAMKITIEVIKLPDGYYVVRITVYDKNGEKVEERELVFSSLEDLLAALKELFPDQKVTVEIRKVTKEELSAG [r14_964_TrROS_Hall] | 3.77 ± 0.18 kcal/mol | 2.16 ± 0.16 kcal/mol | 4.14 ± 0.23 kcal/mol |
| SAGGEFLEKVIEAAIEAAKAGPDAKLELTIPVPGGPVKVTIEVGEDGKVKVTIYKGDKKILEIELPLSAGGS [r16_611_TrMRF] | > 6 kcal/mol | 3.85 ± 0.35 kcal/mol | 4.62 ± 0.34 kcal/mol |
| SAGGSAGGSIKPGQKVKIEIKVEEVDGKLVITAKVYNKDGKLIYEAEIVIENGKIKEVKITPPSAGGSAGGS [r12_264_TrROS_Hall] | 2.9 ± 0.34 kcal/mol | 2.58 ± 0.16 kcal/mol | 3.11 ± 0.31 kcal/mol |
| SAGGSAGGSAGSPDRPRRVEPVPVVTYKDPDLGKEFTSPEEIEKTKEELEKKGLSVEVSASAGGSAGGSAGG [r17_289_JUSTAS] | 0.289 ± 0.15 kcal/mol | -0.209 ± 0.13 kcal/mol | 0.482 ± 0.1 kcal/mol |
| SAGGSAGGSAGMKTVTETEFDPAAPVVTTTTSLVTLPPDGKPSITSTTTTTTAVAAPAAAASAGGSAGGSAG [r3_138_JUSTAS] | 1.03 ± 0.062 kcal/mol | -0.0492 ± 0.05 kcal/mol | 1.41 ± 0.038 kcal/mol |
| SAGMDKPLKVLEIGGAILPNTGKVVLKAKVEDPDSNTPLDLTLTLPVVDPVTGKPYIFTASYTYESPLSAGG [r19_129_TrMRF] | 0.681 ± 0.12 kcal/mol | 0.338 ± 0.13 kcal/mol | 0.844 ± 0.17 kcal/mol |
| SAGGSAMIVTEDPNGVLTTTENGKVTTTTVTPVPRPDPFSDKTFTEYVVTTTTTPVAPSPITPNTLSAGGSA [r15_515_JUSTAS] | 0.823 ± 0.046 kcal/mol | 1.26 ± 0.032 kcal/mol | -0.0422 ± 0.081 kcal/mol |
| SAGGKLPLPPGTEVEFLFRSPLDPRRLYLVRVRFEPVPPDRLRLRPRVFNPETGEEVEFEFEVPLDEGSAGG [r13_268_TrMRF] | 3 ± 0.052 kcal/mol | 2.46 ± 0.041 kcal/mol | 3.234 ± 0.025 kcal/mol |

| Sequence | folding stability dG unfold [1] | folding stability dG unfold [2] | folding stability dG unfold [3] |
| --- | --- | --- | --- |
| SAGGSAGGSAGGMEKVTEVKPVATLPNGTVVTETLVTYTAPNGPEIGEEVVLTEDPVPKSAGGSAGGSAGGS [r10_941_JUSTAS] | -0.455 ± 0.15 kcal/mol | -0.942 ± 0.22 kcal/mol | -0.408 ± 0.2 kcal/mol |
| SMPPEDPGELTLVVPDTRNVTVTLPVPVPPEARVLVTFSDGRRVEAPAGTELTFTIPPGRPYVIRVEVYASA [r9_79_TrMRF] | 1.6 ± 0.076 kcal/mol | 1.2 ± 0.027 kcal/mol | 1.86 ± 0.085 kcal/mol |
| SAKYYFITVEIYMRTGGGPRKMDITVMIPPEEMPPEDVKEIAKEIADWLAEHHPGFEVKVTIIPPDDMKSAG [r14_723_TrROS] | 3.74 ± 0.47 kcal/mol | 2.39 ± 0.092 kcal/mol | 4.07 ± 0.16 kcal/mol |
| SLDPGEPVYRIKVKIEMWNPNGKPIAEFTIPIRTLEEAKEAIKEMAREIAEKMGHPDMPIRIKDIEIEPYSA [r9_376_TrROS] | 2.27 ± 0.099 kcal/mol | 2.29 ± 0.033 kcal/mol | 2.21 ± 0.045 kcal/mol |
| SAGGSAGGMPEYRVLDIEIETRPDMTPEEAVEEIRKALEPLGAIRVEAEPLPDGRIRVRVVLPESAGGSAGG [r6_881_TrMRF] | 3.27 ± 0.32 kcal/mol | 3.5 ± 0.28 kcal/mol | 2.45 ± 0.25 kcal/mol |
| SAGGSAGGSAGKTVQIWIPPDEITPEALKSLAREGWKIKPIEIRRNPEDGWISITIELKPSAGGSAGGSAGG [r11_345_TrROS] | 0.619 ± 0.25 kcal/mol | 0.597 ± 0.076 kcal/mol | 0.451 ± 0.36 kcal/mol |
| SAGGLPELLKALGLPVTSVRSVPVLLPGGRPALVTFVEFEDPEGERYRLVVVRLPNGEVLVRVERLDPSAGG [r13_818_TrMRF] | 4.53 ± 0.1 kcal/mol | 3.39 ± 0.15 kcal/mol | 4.9 ± 0.12 kcal/mol |
| SAGGSAGGSAGGKKVKVLTLTIELEVKDSNGKKYKVKATVTLIYDEKTKKLYLNISIEPSAGGSAGGSAGGS [r10_795_TrROS_Hall] | 4.85 ± 0.31 kcal/mol | 3.95 ± 0.39 kcal/mol | 5.05 ± 0.19 kcal/mol |
| SAGSPLTLSEKTSYDPSTGVTTRTFTFPDGTTRTTATVTVPGTGTLLTSTDFTQSPGTLTQSSGVAPLSAGG [r19_394_JUSTAS] | 0.616 ± 0.025 kcal/mol | 0.392 ± 0.019 kcal/mol | 0.706 ± 0.031 kcal/mol |
| SAGGSEAEIVSVEFDEETGTISVLVRNSDGSLYRAEIRFERLPDGSLLVTIKVTLPDGKELTFVFPSAGGSA [r2_488_TrROS_Hall] | 5.78 ± 0.19 kcal/mol | 3.94 ± 0.11 kcal/mol | 5.77 ± 0.085 kcal/mol |
| SAGGSAGGSAGMIDIKFEKIEGSSEYRATLTRPGGEVVPVLFSSSESAEEAKERAIELLESAGGSAGGSAGG [r17_161_JUSTAS] | 1.15 ± 0.12 kcal/mol | 0.906 ± 0.06 kcal/mol | 1.28 ± 0.11 kcal/mol |
| SAGGSAGGSAGGDKNGKKELRPEVKIKVKIEAEIEPFRYPNNGMPMWILKISIEITSIDSAGGSAGGSAGGS [r10_877_TrROS] | 4.5 ± 0.19 kcal/mol | 2.96 ± 0.18 kcal/mol | 4.75 ± 0.18 kcal/mol |
| SAGGMVTITLPEVNVEDPEVAEARMEEIAARLRAAGVTVTSASYDPEKGLATITVSAGGLSAAEVLASAGGS [r8_344_JUSTAS] | 2.47 ± 0.037 kcal/mol | 2.48 ± 0.042 kcal/mol | 2.455 ± 0.015 kcal/mol |
| SAGGSAGGSASIEVAAPPDATVTITTEITRKLPAGAKLPNGVVASADETLKETVTTTITVLGSAGGSAGGSA [r18_450_JUSTAS] | 0.364 ± 0.34 kcal/mol | -0.27 ± 0.29 kcal/mol | 0.817 ± 0.047 kcal/mol |
| SAGGSAGGSAGGMTTTTVSRSPDGTITTTTTTYVPTPDGSVVPVTTTTTTTPIDPAALSSAGGSAGGSAGGS [r10_991_JUSTAS] | 1.42 ± 0.036 kcal/mol | 1.45 ± 0.046 kcal/mol | 1.39 ± 0.017 kcal/mol |
| SAGKDEKLVKVIVKFNDKTFEVVVKEEDLKKLVESGILKVVGKIPGKNIVAIKVEVPPPKGDPVGPTPVSAG [r5_868_TrMRF] | 2.5 ± 0.17 kcal/mol | 2.08 ± 0.24 kcal/mol | 2.82 ± 0.14 kcal/mol |
| SAGGSAGGSMELVIKTVTVNSPSKSPEELAKEIEEKYGVKILKVEVTEDPEGGVTVTATIINKSAGGSAGGS [r12_359_JUSTAS] | 1.49 ± 0.041 kcal/mol | 1.72 ± 0.065 kcal/mol | 1.34 ± 0.015 kcal/mol |
| SAMKKPPKTLTLVIVVKVPEEEMTEEQLEELARELAEALAPPGEKVEVKVEVERLPDGTVVVKIEIKLESAG [r14_389_TrROS_Hall] | 2.22 ± 0.17 kcal/mol | 2.28 ± 0.091 kcal/mol | 1.98 ± 0.067 kcal/mol |
| SAGGSAGGSAGGSDNKAILGDVPIKFYDKNGKPVITAKIGYFPDGRVVIYFPDGSKIEASAGGSAGGSAGGS [r10_972_TrMRF] | 1.25 ± 0.038 kcal/mol | 1.48 ± 0.04 kcal/mol | 1.04 ± 0.023 kcal/mol |
| SAGGSAGGSAMITTYDPKTGLVYELVPDPVPGVGVERLVVRVVTVEEFPDAIVRKVEVRPESAGGSAGGSAG [r3_409_JUSTAS] | 0.67 ± 0.14 kcal/mol | -0.211 ± 0.22 kcal/mol | 1.01 ± 0.074 kcal/mol |
| SAGGSAGGMTLLIRDPETNELVEVTVEEKDGKLTLTVRNKKTGETTEIEIPLDEEPIEIVLLEPSAGGSAGG [r6_465_TrROS_Hall] | 2.43 ± 0.12 kcal/mol | 2.09 ± 0.12 kcal/mol | 2.61 ± 0.021 kcal/mol |
